How the values were obtained:
[1] = target: the molecule itself; assay: SEC-MALS
[2] = target: histone acetyltransferase p300, full-length, Strep II-tagged (human, UniProt Q09472 1-2414); assay: cross-linking
Sequence of histone acetyltransferase p300, full-length, Strep II-tagged (Q09472 whole entry): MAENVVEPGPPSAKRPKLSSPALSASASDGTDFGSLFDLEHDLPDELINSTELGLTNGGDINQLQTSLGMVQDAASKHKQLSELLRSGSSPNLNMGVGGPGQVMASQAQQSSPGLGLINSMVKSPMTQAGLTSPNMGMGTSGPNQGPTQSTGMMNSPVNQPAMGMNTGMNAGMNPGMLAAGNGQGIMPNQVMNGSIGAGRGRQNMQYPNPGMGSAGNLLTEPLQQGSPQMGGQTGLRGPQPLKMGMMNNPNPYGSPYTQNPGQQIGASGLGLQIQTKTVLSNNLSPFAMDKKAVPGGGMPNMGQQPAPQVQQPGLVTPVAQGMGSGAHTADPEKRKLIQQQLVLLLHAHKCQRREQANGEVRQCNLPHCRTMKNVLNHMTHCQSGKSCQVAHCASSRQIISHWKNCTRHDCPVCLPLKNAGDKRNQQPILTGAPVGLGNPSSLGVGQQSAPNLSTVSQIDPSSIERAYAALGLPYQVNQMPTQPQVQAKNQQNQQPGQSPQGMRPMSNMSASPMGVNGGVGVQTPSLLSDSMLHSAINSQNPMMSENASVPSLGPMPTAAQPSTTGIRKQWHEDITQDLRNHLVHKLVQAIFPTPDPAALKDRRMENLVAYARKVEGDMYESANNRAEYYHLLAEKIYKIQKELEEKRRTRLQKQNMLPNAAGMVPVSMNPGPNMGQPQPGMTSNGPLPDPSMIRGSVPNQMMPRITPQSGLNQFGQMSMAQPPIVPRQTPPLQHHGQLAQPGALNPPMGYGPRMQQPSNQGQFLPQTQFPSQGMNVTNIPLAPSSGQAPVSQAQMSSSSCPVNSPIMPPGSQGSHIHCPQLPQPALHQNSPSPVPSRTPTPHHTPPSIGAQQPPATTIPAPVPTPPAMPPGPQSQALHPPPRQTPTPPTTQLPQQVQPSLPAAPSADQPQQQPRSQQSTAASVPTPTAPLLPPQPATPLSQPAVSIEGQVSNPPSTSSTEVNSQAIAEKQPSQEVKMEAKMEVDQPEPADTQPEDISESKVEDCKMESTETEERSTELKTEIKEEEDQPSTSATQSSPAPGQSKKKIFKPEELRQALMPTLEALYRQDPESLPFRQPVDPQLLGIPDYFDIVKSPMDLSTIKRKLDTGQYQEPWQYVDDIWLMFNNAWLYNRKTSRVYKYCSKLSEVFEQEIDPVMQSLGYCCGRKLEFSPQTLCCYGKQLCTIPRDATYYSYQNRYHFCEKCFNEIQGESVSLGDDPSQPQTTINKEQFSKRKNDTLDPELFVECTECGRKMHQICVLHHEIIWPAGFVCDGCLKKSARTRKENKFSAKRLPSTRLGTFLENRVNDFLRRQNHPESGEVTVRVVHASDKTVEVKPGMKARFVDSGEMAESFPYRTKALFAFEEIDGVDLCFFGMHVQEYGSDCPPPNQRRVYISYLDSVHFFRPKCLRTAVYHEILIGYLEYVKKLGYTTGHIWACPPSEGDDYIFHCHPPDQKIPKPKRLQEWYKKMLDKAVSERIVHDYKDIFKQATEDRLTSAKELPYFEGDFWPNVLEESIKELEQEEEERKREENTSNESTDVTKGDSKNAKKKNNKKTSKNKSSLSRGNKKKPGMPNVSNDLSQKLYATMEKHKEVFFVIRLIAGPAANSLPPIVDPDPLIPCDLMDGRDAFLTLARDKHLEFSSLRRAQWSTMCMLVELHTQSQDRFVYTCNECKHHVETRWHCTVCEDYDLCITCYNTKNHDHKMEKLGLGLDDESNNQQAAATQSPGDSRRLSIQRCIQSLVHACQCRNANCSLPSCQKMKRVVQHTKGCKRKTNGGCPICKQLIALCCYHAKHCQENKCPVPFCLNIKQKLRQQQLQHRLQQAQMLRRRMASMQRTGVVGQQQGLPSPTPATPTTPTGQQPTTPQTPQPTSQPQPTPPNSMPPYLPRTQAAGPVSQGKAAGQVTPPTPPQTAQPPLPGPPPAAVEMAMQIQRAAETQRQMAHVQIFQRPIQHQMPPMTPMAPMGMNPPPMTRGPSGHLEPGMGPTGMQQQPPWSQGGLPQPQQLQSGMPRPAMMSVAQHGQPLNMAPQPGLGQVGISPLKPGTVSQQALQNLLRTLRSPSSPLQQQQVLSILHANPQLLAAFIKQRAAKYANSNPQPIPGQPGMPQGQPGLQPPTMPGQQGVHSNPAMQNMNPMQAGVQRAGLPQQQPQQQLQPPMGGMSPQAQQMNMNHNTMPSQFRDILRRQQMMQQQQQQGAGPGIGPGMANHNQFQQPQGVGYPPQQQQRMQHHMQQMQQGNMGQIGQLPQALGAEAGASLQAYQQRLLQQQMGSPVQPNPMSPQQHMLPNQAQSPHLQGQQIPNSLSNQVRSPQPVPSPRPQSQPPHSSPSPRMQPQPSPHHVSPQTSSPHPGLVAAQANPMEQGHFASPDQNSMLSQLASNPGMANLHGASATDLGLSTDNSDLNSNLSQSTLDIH

binding result [2]	Binder	stoichiometry N [1]
binds	progesterone receptor isoform B (PR-B), full-length, Strep II-tagged (receptor, phosphorylated on multiple serine residues (sites not given)) MTELKAKGPRAPHVAGGPPSPEVGSPLLCRPAAGPFPGSQTSDTLPEVSAIPISLDGLLFPRPCQGQDPSDEKTQDQQSLSDVEGAYSRAEATRGAGGSSSSPPEKDSGLLDSVLDTLLAPSGPGQSQPSPPACEVTSSWCLFGPELPEDPPAAPATQRVLSPLMSRSGCKVGDSSGTAAAHKVLPRGLSPARQLLLPASESPHWSGAPVKPSPQAAAVEVEEEDGSESEESAGPLLKGKPRALGGAAAGGGAAAVPPGAAAGGVALVPKEDSRFSAPRVALVEQDAPMAPGRSPLATTVMDFIHVPILPLNHALLAARTRQLLEDESYDGGAGAASAFAPPRSSPCASSTPVAVGDFPDCAYPPDAEPKDDAYPLYSDFQPPALKIKEEEEGAEASARSPRSYLVAGANPAAFPDFPLGPPPPLPPRATPSRPGEAAVTAAPASASVSSASSSGSTLECILYKAEGAPPQQGPFAPPPCKAPGASGCLLPRDGLPSTSASAAAAGAAPALYPALGLNGLPQLGYQAAVLKEGLPQVYPPYLNYLRPDSEASQSPQYSFESLPQKICLICGDEASGCHYGVLTCGSCKVFFKRAMEGQHNYLCAGRNDCIVDKIRRKNCPACRLRKCCQAGMVLGGRKFKKFNKVRVVRALDAVALPQPVGVPNESQALSQRFTFSPGQDIQLIPPLINLLMSIEPDVIYAGHDNTKPDTSSSLLTSLNQLGERQLLSVVKWSKSLPGFRNLHIDDQITLIQYSWMSLMVFGLGWRSYKHVSGQMLYFAPDLILNEQRMKESSFYSLCLTMWQIPQEFVKLQVSQEEFLCMKVLLLLNTIPLEGLRSQTQFEEMRSSYIRELIKAIGLRQKGVVSSSQRFYQLTKLLDNLHDLVKQLHLYCLNTFIQSRALSVEFPEMMSEVIAAQLPKILAGMVKPLLFHKK	2
binds	progesterone receptor isoform A (PR-A), full-length, Strep II-tagged (receptor, phosphorylated on multiple serine residues (sites not given)) MSRSGCKVGDSSGTAAAHKVLPRGLSPARQLLLPASESPHWSGAPVKPSPQAAAVEVEEEDGSESEESAGPLLKGKPRALGGAAAGGGAAAVPPGAAAGGVALVPKEDSRFSAPRVALVEQDAPMAPGRSPLATTVMDFIHVPILPLNHALLAARTRQLLEDESYDGGAGAASAFAPPRSSPCASSTPVAVGDFPDCAYPPDAEPKDDAYPLYSDFQPPALKIKEEEEGAEASARSPRSYLVAGANPAAFPDFPLGPPPPLPPRATPSRPGEAAVTAAPASASVSSASSSGSTLECILYKAEGAPPQQGPFAPPPCKAPGASGCLLPRDGLPSTSASAAAAGAAPALYPALGLNGLPQLGYQAAVLKEGLPQVYPPYLNYLRPDSEASQSPQYSFESLPQKICLICGDEASGCHYGVLTCGSCKVFFKRAMEGQHNYLCAGRNDCIVDKIRRKNCPACRLRKCCQAGMVLGGRKFKKFNKVRVVRALDAVALPQPVGVPNESQALSQRFTFSPGQDIQLIPPLINLLMSIEPDVIYAGHDNTKPDTSSSLLTSLNQLGERQLLSVVKWSKSLPGFRNLHIDDQITLIQYSWMSLMVFGLGWRSYKHVSGQMLYFAPDLILNEQRMKESSFYSLCLTMWQIPQEFVKLQVSQEEFLCMKVLLLLNTIPLEGLRSQTQFEEMRSSYIRELIKAIGLRQKGVVSSSQRFYQLTKLLDNLHDLVKQLHLYCLNTFIQSRALSVEFPEMMSEVIAAQLPKILAGMVKPLLFHKK	
